Experimental data reported in paper PMC7470945, “DNA backbone interactions impact the sequence specificity of DNA sulfur-binding domains: revelations from structural analyses”.

Key:
Assay in all cases: fluorescence polarization; FP: 20 mM Tris-HCl pH 8.0, 50 mM NaCl, 5% glycerol, 1 mM DTT, 5 nM probe, room temperature; EMSA: 20 mM Tris-HCl pH 8.0, 100 mM NaCl, 5% glycerol, room temperature, protein 4x DNA
SBDSco (SBD of ScoMcrA) = target: T1, SBDSco (SBD of ScoMcrA) (Streptomyces coelicolor, UniProt Q9L0M9 90-250); details: protein: recombinant; tags: N-terminal 6xHis (pET28a); label: 5'-FAM on one strand (FP); blunt
T1 sequence: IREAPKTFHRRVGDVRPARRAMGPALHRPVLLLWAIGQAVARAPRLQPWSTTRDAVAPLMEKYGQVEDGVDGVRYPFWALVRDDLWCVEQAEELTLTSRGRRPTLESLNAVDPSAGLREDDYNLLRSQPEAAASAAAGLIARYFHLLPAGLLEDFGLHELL

SBDSpr (SBD of SprMcrA) = SBDSpr (SBD of SprMcrA) (Streptomyces pristinaespiralis, UniProt A0A0M4DML1 1-165); details: protein: recombinant, tags: N-terminal 6xHis (pET28a), blunt; for Kd: label: 5'-FAM on one strand (FP); for binding result: label: 5'-FAM on one strand
SBDSco E156K = target: T2, SBDSco E156K (Streptomyces coelicolor, UniProt Q9L0M9 90-250, E156K); details: protein: recombinant; tags: 6xHis; label: 5'-FAM on one strand (FP); blunt
T2 sequence: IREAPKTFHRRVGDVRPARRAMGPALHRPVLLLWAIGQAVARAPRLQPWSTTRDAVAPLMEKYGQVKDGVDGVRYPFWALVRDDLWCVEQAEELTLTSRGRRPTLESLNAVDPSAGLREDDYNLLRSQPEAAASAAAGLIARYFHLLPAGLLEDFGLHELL

SBDSco E156R = target: T3, SBDSco E156R (Streptomyces coelicolor, UniProt Q9L0M9 90-250, E156R); details: protein: recombinant; tags: 6xHis; label: 5'-FAM on one strand (FP); blunt
T3 sequence: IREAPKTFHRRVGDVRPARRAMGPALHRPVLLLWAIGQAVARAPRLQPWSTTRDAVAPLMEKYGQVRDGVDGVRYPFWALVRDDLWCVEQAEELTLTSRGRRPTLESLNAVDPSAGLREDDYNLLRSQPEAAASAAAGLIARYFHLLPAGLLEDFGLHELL

SBDSco E156L = target: T4, SBDSco E156L (Streptomyces coelicolor, UniProt Q9L0M9 90-250, E156L); details: protein: recombinant; tags: 6xHis; label: 5'-FAM on one strand (FP); blunt
T4 sequence: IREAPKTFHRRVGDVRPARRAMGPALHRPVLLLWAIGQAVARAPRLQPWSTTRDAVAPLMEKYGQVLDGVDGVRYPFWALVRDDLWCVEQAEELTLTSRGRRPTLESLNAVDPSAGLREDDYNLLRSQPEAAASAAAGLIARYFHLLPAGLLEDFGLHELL

SBDSco E156Q = target: T5, SBDSco E156Q (Streptomyces coelicolor, UniProt Q9L0M9 90-250, E156Q); details: protein: recombinant; tags: 6xHis; label: 5'-FAM on one strand (FP); blunt
T5 sequence: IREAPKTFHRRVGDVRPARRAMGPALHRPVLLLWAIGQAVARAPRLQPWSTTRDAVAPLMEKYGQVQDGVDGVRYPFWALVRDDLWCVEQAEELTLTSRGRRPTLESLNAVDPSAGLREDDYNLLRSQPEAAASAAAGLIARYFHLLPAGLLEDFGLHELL

SBDSco E156R/D157R = target: T6, SBDSco E156R/D157R (Streptomyces coelicolor, UniProt Q9L0M9 90-250, E156R;D157R); details: protein: recombinant; tags: 6xHis; label: 5'-FAM on one strand (FP); blunt
T6 sequence: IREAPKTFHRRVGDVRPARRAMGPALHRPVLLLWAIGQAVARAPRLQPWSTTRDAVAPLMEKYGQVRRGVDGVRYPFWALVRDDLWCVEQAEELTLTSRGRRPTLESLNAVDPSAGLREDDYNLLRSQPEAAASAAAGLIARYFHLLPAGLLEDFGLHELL

SBDSco E156D = target: T7, SBDSco E156D (Streptomyces coelicolor, UniProt Q9L0M9 90-250, E156D); details: protein: recombinant; tags: 6xHis; label: 5'-FAM on one strand (FP); blunt
T7 sequence: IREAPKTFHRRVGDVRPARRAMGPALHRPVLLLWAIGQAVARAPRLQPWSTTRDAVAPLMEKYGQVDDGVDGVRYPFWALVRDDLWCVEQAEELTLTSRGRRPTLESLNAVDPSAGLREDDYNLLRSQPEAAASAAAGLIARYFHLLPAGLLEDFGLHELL

Binder	Kd (SBDSco (SBD of ScoMcrA)) [nM]	Kd (SBDSpr (SBD of SprMcrA)) [nM]	Kd (SBDSco E156K) [nM]	Kd (SBDSco E156R) [nM]	Kd (SBDSco E156L) [nM]	Kd (SBDSco E156Q) [nM]	Kd (SBDSco E156R/D157R) [nM]	Kd (SBDSco E156D) [nM]	binding result (SBDSpr (SBD of SprMcrA))
PT-GATC-10 RP (hemi-PT) (dsDNA, RP phosphorothioate between G4 and A5 of strand 1) DNA 1: GATGATCCTA DNA 2: TAGGATCATC	1090 ± 58	38 ± 8	370 ± 14	346 ± 17	791 ± 42	1020 ± 49	192 ± 12	1320 ± 99	
PT-GAAC-10 RP (hemi-PT) (dsDNA, RP phosphorothioate between G4 and A5 of strand 1) DNA 1: GGCGAACGTG DNA 2: CACGTTCGCC	567 ± 37	95 ± 25	297 ± 19	267 ± 15	499 ± 37	618 ± 43	183 ± 9	846 ± 74	
PT-GATC-10 SP (hemi-PT) (dsDNA, SP phosphorothioate between G4 and A5 of strand 1) DNA 1: GATGATCCTA DNA 2: TAGGATCATC									no binding
PT-CCA-10 RP (hemi-PT) (dsDNA, RP phosphorothioate between C5 and C6 of strand 1) DNA 1: GAACCCAAGC DNA 2: GCTTGGGTTC									no binding
PT-CCA-10 SP (hemi-PT) (dsDNA, SP phosphorothioate between C5 and C6 of strand 1) DNA 1: GAACCCAAGC DNA 2: GCTTGGGTTC									no binding
